For experiment [1], the target named is RaTG13 RBD displayed on S. cerevisiae (bat coronavirus RaTG13). The experiment can be described thus: flow cytometry, S. cerevisiae displaying the RBD, AF633 anti-human IgG [RaTG13].
For experiment [2], the target named is WIV1 RBD displayed on S. cerevisiae (WIV1 (bat sarbecovirus)). The experiment can be described thus: flow cytometry, S. cerevisiae displaying the RBD, AF633 anti-human IgG [WIV1]. (Flow cytometry measures light scatter and fluorescence of single cells or particles in a stream.)
In experiment [3] the target is LYRa11 RBD displayed on S. cerevisiae (bat SARS-related coronavirus LYRa11). The experiment is described as follows: flow cytometry, S. cerevisiae displaying the RBD, AF633 anti-human IgG [LYRa11].
Experiment [4] has as its target SARS-Cov-1 RBD displayed on S. cerevisiae.
Experiment [5] concerns the target GD-Pangolin RBD displayed on S. cerevisiae (GD-Pangolin coronavirus).
The target in experiment [6] is WIV1-CoV RBD (WIV1-CoV (bat)).
Experiment [7] has as its target WIV1-CoV RBD (WIV1-CoV (bat)). The experiment is described as follows: SPR, His-tagged VHH on NTA chip, RBD as analyte.
Experiment [8] deals with Mouse IgG1 Fc fused SARS-CoV-2 RBD (Sino Biological) (SARS-CoV-2; mouse) (UniProt P0DTC2).

“And” between values parts separate entries of the source, which are not always exact repeats. Equal entries are not always repeated.

The EC50 (read off the curve) is the midpoint of the concentration-response curve. For the substance S309 antibody, the EC50 (read off the curve) in experiment [1] was found to be 0.8 µg/mL; in experiment [2], 0.7 µg/mL; in experiment [3], 0.8 µg/mL; in experiment [4], 0.5 µg/mL; in experiment [5], 1 µg/mL.
For orientation: koff means the rate constant with which the complex falls apart. A low value points to slow dissociation. For orientation: kon means a measure of how fast the partners come together. As usually defined, the Kd is the free concentration of one partner at which half of the binding sites on the other are occupied at equilibrium, for simple one-to-one binding. Low values mean higher affinity, high ones lower affinity. Regarding SARS VHH-72, in experiment [6], the off-rate constant (koff) was found to be 0.0026 s⁻¹ and the kon stood at 349000 M⁻¹ s⁻¹. In addition, the dissociation constant (Kd) in experiment [7] worked out at 7.47 nM.
In the case of “VHH72-W52aH-hIgG1 Fc (P. pastoris supernatant) (Fc fusion)”, in experiment [8], the % Signal decrease over 8 min dissociation was 49% and 51%; the Kd is 120 nM and 92.2 nM.

The values are drawn from patent US20230227537A1.
